Laboratory results as given in the supplement of paper PMC10126150.
± gives the standard deviation of the averaged measurements.

tested on: ATP; assay: switch fluorescence ratio, 500 uM ATP over buffer (Cy3 cluster intensity, sum of 5 cycles each) (fold (ratio)); higher = stronger signal-on switching upon ATP binding; sequences stand for … in TCGTCGGCAGCGTCAGATGTGTATAAGAGACAGTTTTTTTTTTTTTTTTTTTTTTTTT…TC; conditions: aptamer strand: ATP DNA aptamer (quencher-CACCTGGGGGAGTATTGCGGAGGAAGG + anchor), 100 nM annealed; ATP concentration: 500 uM
In short: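 Per cluster, summed Cy3 intensity from the target cycles was divided by that from the buffer cycles to give the fluorescence ratio, then averaged per switch-domain sequence. Clusters outside 100-1000 RFU were excluded. The Cy3-labelled switching-strand clusters, on a modified Illumina MiSeq flow-cell, were annealed to 100 nM quencher-labelled ATP aptamer and imaged in selection buffer, then after 15 min with 500 uM ATP at 22 °C, for five cycles with NaOH stripping and re-annealing between them.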
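Further: ATP exposure 15 min at 22 °C before imaging.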

ACGGGATTTT and ATACTTTGCT are within error of each other in switch fluorescence ratio: 1.03 ± 0.026 for the first, 1 ± 0.034 for the second.

TTGTTGCGGA and GTAATATGCG are within error of each other in switch fluorescence ratio: 0.997 ± 0.011 for the first, 0.987 ± 0.018 for the second.

Compared with CGTAAAAAT, GTTTCTGTGT is lower in switch fluorescence ratio: 1.01 ± 0.027 for the first, 0.956 ± 0.012 for the second.

First: ACGAGACAGC
Second: AATTAGTTGT
The switch fluorescence ratio of the first is higher: 1.191 ± 3.6e-05 for the first, 0.9918 ± 0.0084 for the second.

AATAATTGGT and CCAGTATTTT are within error of each other in switch fluorescence ratio: 1.01 ± 0.012 for the first, 0.999 ± 0.015 for the second.

AAGAGTCTT and TTGGCTAATA are within error of each other in switch fluorescence ratio: 0.963 ± 0.042 for the first, 1.01 ± 0.018 for the second.

CCAGTTTCGG and CGCTAAAGTG are within error of each other in switch fluorescence ratio: 0.983 ± 0.049 for the first, 1.06 ± 0.086 for the second.

TTTGGGACTC and GTTGGTGTGT are within error of each other in switch fluorescence ratio: 0.9731 ± 0.0023 for the first, 0.9667 ± 0.0071 for the second.

First: TATACTGTAA
Second: TTGTTTGGTA
The switch fluorescence ratio of the first is higher: 1.14 ± 0.031 for the first, 1 ± 0.013 for the second.

Going from AGCTTTGCTA to AGACGAGACT, the switch fluorescence ratio rises from 0.9582 ± 0.0072 to 1.08 ± 0.03.

AAGGTGGAAG and AAAGTTTCCA are within error of each other in switch fluorescence ratio: 1.003 ± 0.0046 for the first, 0.993 ± 0.025 for the second.

TTGTAGTTAT and CTAACTTGCG are within error of each other in switch fluorescence ratio: 1.09 ± 0.16 for the first, 0.995 ± 0.014 for the second.

AGTTTAAGAT and CATAAGGGTT are within error of each other in switch fluorescence ratio: 1.005 ± 0.0071 for the first, 1.13 ± 0.17 for the second.

Compared with TTCGTAGTGA, TAGAGCGGGA is lower in switch fluorescence ratio: 1.18 ± 0.025 for the first, 1.008 ± 0.0087 for the second.

TTGCGGGGAA and ACCAGGGAAA are within error of each other in switch fluorescence ratio: 1.03 ± 0.029 for the first, 1.01 ± 0.014 for the second.

TTTTATTGAA and ATTGCGGGCA are within error of each other in switch fluorescence ratio: 1 ± 0.03 for the first, 0.982 ± 0.035 for the second.

ATAATATTGG and TAAGTTGGGG are the same in switch fluorescence ratio: 0.995 ± 0.013 for the first, 0.995 ± 0.02 for the second.

Going from AATCACGGAG to TAGGGGTTCA, the switch fluorescence ratio falls from 1.019 ± 0.0061 to 1.013 ± 0.002.

TCGCGTGGTA and TTGTGGATG are within error of each other in switch fluorescence ratio: 0.989 ± 0.038 for the first, 0.962 ± 0.017 for the second.

First: CTGAATACGG
Second: ACGGGAGAGG
The switch fluorescence ratio of the first is higher: 1.115 ± 0.01 for the first, 1.02 ± 0.035 for the second.

Going from AAGGAATACA to GTTGTTGGGG, the switch fluorescence ratio falls from 1.07 ± 0.041 to 0.974 ± 0.043.

TTAGGCACGC and GGTTATTAAA are within error of each other in switch fluorescence ratio: 1.01 ± 0.023 for the first, 0.998 ± 0.01 for the second.

ATTTGGGGTA and TTTTTGGAGT are within error of each other in switch fluorescence ratio: 1.01 ± 0.024 for the first, 1.05 ± 0.07 for the second.

GAGGGGGACG and AGATTGTTAG are within error of each other in switch fluorescence ratio: 1 ± 0.14 for the first, 1.015 ± 0.0027 for the second.

Compared with GGATCTTGGG, TTAGTCTTGA is lower in switch fluorescence ratio: 1.0038 ± 0.00073 for the first, 0.9796 ± 0.0028 for the second.

GAAGATTGAT and AGGAGTGTTC are within error of each other in switch fluorescence ratio: 0.96 ± 0.022 for the first, 1.01 ± 0.084 for the second.

AACGGTTAAA and AAGGCCGGCG are the same in switch fluorescence ratio: 1.011 ± 0.0022 for the first, 1.01 ± 0.017 for the second.

CTGTGTGGGA and ATGTTCGGCC are the same in switch fluorescence ratio: 1.01 ± 0.013 for the first, 1.012 ± 0.01 for the second.

TTTTTAGTCT and CAATGATGGG are within error of each other in switch fluorescence ratio: 1 ± 0.027 for the first, 1.0072 ± 0.00052 for the second.

GGGCAGGGTA and CTGGGTAATT are within error of each other in switch fluorescence ratio: 0.9883 ± 0.0076 for the first, 1.04 ± 0.059 for the second.

GGAGAAGTGG and TCTGTAATTT are within error of each other in switch fluorescence ratio: 0.976 ± 0.034 for the first, 1.41 ± 0.59 for the second.

ATAGGAAGGG and CGGTAGTTGG are within error of each other in switch fluorescence ratio: 0.996 ± 0.019 for the first, 0.983 ± 0.019 for the second.

Going from CACATCACTT to GCATGTATGG, the switch fluorescence ratio falls from 1.43 ± 0.27 to 0.983 ± 0.044.

TATTGGGCGG and GCTTCTAGGT are within error of each other in switch fluorescence ratio: 1.01 ± 0.045 for the first, 0.9976 ± 0.0043 for the second.

AAGGCGGGGG and TTGCTTTGTC are within error of each other in switch fluorescence ratio: 0.986 ± 0.016 for the first, 0.994 ± 0.013 for the second.

GGGATACAGC and CGGTGAATCT are within error of each other in switch fluorescence ratio: 1.03 ± 0.059 for the first, 1.01 ± 0.03 for the second.

Going from GTTTACTGAA to TCTGGTGTTC, the switch fluorescence ratio rises from 1.01 ± 0.018 to 1.045 ± 0.005.

TGAGAGTTCA and AAGATTTTTG are the same in switch fluorescence ratio: 1.006 ± 0.0032 for the first, 1.01 ± 0.041 for the second.

Going from TTGACACGGG to ATATAATAGT, the switch fluorescence ratio falls from 1.11 ± 0.025 to 0.991 ± 0.015.

GTAGGGGACA and CGTCATATGG are within error of each other in switch fluorescence ratio: 1.06 ± 0.012 for the first, 1.07 ± 0.012 for the second.

Compared with TGTGACTGCC, GGTGGAGAGG is lower in switch fluorescence ratio: 1.04 ± 0.055 for the first, 0.929 ± 0.018 for the second.

First: TCTCAGGTTG
Second: TAATGTTATG
The switch fluorescence ratio of the first is higher: 1.072 ± 0.0058 for the first, 1.03 ± 0.017 for the second.

First: CGGGGGTCGT
Second: GGTATAGCAC
The switch fluorescence ratio of the first is lower: 0.98794 ± 0.00054 for the first, 1.07 ± 0.016 for the second.

GACGATTGTT and CGGTATAGTA are within error of each other in switch fluorescence ratio: 0.988 ± 0.021 for the first, 0.983 ± 0.032 for the second.

CGGGTGTGGG and CGGAAGTTGA are within error of each other in switch fluorescence ratio: 1.009 ± 0.0012 for the first, 1.02 ± 0.067 for the second.

Going from TCAATGTGGC to TGCGGAGTAC, the switch fluorescence ratio rises from 1.04 ± 0.036 to 1.33 ± 0.14.

GGTACTGGGG and TGGTTCTATT are within error of each other in switch fluorescence ratio: 1.06 ± 0.015 for the first, 1.02 ± 0.064 for the second.

CTTTGGATCA and GATAGAGGGG are the same in switch fluorescence ratio: 0.9836 ± 0.0055 for the first, 0.984 ± 0.028 for the second.

GCGGAAGGGG and TTTCTTTAAA are within error of each other in switch fluorescence ratio: 0.988 ± 0.015 for the first, 1.01 ± 0.019 for the second.

Going from TTTAACACCA to ATCAATGACG, the switch fluorescence ratio falls from 1.029 ± 0.0075 to 0.95 ± 0.059.

ATAGGTTCGG and CATGTCGACT are within error of each other in switch fluorescence ratio: 0.968 ± 0.021 for the first, 0.988 ± 0.046 for the second.

CTATTAATGA and TGCATGGGGT are within error of each other in switch fluorescence ratio: 1.03 ± 0.057 for the first, 1.01 ± 0.022 for the second.

First: AAGTTTGAAT
Second: AGGAAGGG
The switch fluorescence ratio of the first is lower: 0.978 ± 0.013 for the first, 1.0069 ± 0.00083 for the second.

ATAGGGAGTG and GTGGCCAACC are within error of each other in switch fluorescence ratio: 0.996 ± 0.043 for the first, 1.02 ± 0.0022 for the second.

GGTCAGTGGT and TGCCAATGTG are within error of each other in switch fluorescence ratio: 1 ± 0.022 for the first, 0.989 ± 0.013 for the second.

ATATACGGGG and ATGGGTGCTT are within error of each other in switch fluorescence ratio: 1.04 ± 0.02 for the first, 1.01 ± 0.039 for the second.

GGATTGGTTT and CTGGGGGTCG are within error of each other in switch fluorescence ratio: 0.983 ± 0.03 for the first, 1 ± 0.025 for the second.

TTTCCCCATT and AAGATACGCT are within error of each other in switch fluorescence ratio: 1.012 ± 0.0066 for the first, 1.06 ± 0.065 for the second.

TACTCATTGC and AAGGCGTAG are within error of each other in switch fluorescence ratio: 1.03 ± 0.067 for the first, 0.984 ± 0.1 for the second.

TTGAACTTTG and ACCTAGTCGG are within error of each other in switch fluorescence ratio: 0.978 ± 0.061 for the first, 1.01 ± 0.015 for the second.

GGGTTACTGG and TGTGCTATGT are within error of each other in switch fluorescence ratio: 1.002 ± 0.0021 for the first, 0.995 ± 0.028 for the second.

GTCTCATCAC and GAAGTAGGGA are within error of each other in switch fluorescence ratio: 1.01 ± 0.056 for the first, 1 ± 0.064 for the second.

GGTCGAAGGG and ACTGTTATGA are within error of each other in switch fluorescence ratio: 0.985 ± 0.051 for the first, 1.08 ± 0.058 for the second.

TCTGCTTATT and GTGGATGTAC are within error of each other in switch fluorescence ratio: 0.979 ± 0.048 for the first, 1.06 ± 0.05 for the second.

TTAAAGTGAG and TTGGGAGGGT are within error of each other in switch fluorescence ratio: 0.99 ± 0.037 for the first, 0.999 ± 0.029 for the second.

Going from TCCATCAGCT to AAAGTACTGG, the switch fluorescence ratio rises from 1.1 ± 0.025 to 1.19 ± 0.042.

GATTTTCATG and TGTTTCATTG are within error of each other in switch fluorescence ratio: 1 ± 0.013 for the first, 0.976 ± 0.018 for the second.

ATTTGGCGCT and CGGTCGGGTA are within error of each other in switch fluorescence ratio: 0.994 ± 0.059 for the first, 1.01 ± 0.031 for the second.

TTTAGTCTGC and AAGATGGGGG are within error of each other in switch fluorescence ratio: 0.993 ± 0.018 for the first, 0.998 ± 0.033 for the second.

First: GAAACCAGAG
Second: TGGGTTCAGC
The switch fluorescence ratio of the first is higher: 1.39 ± 0.014 for the first, 1 ± 0.011 for the second.

Compared with GATACTATGT, TACAATCGGA is lower in switch fluorescence ratio: 1.01 ± 0.0085 for the first, 0.9791 ± 0.0067 for the second.

GTATCTGGGG and AGTTTGTGGG are within error of each other in switch fluorescence ratio: 0.998 ± 0.059 for the first, 0.984 ± 0.0025 for the second.

CAGAAAAAAG and GGAAGTCTCA are within error of each other in switch fluorescence ratio: 1.01 ± 0.028 for the first, 0.975 ± 0.012 for the second.

TATCAGGGGA and CTATTAAGGG are within error of each other in switch fluorescence ratio: 1 ± 0.075 for the first, 0.976 ± 0.056 for the second.

TGGGGTATAT and CCGAAAATGA are within error of each other in switch fluorescence ratio: 0.996 ± 0.015 for the first, 1.35 ± 0.49 for the second.

TTGTAGCTGT and CGGGGTAGGG are within error of each other in switch fluorescence ratio: 1.12 ± 0.13 for the first, 0.983 ± 0.016 for the second.

In the case of TGGTAGAAGT, the switch fluorescence ratio is reported as 0.988 ± 0.022.
